In US20230158141A1 (YAFEI SHANGHAI BIOLOG MEDICINE SCIENCE AND TECHNOLOGY, published 2023):

T1: IL-10R1-Fc (UniProt Q13651 22-235, limits assumed)
T1 sequence (looked up): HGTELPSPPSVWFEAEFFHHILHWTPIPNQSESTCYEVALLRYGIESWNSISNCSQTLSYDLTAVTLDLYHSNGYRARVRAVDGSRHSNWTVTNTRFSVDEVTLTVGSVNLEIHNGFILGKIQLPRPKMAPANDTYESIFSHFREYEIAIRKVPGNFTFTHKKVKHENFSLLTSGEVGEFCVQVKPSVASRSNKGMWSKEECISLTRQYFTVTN

T2: IL-10R2-Fc/His (UniProt Q08334 20-220, limits assumed)
T2 sequence (looked up): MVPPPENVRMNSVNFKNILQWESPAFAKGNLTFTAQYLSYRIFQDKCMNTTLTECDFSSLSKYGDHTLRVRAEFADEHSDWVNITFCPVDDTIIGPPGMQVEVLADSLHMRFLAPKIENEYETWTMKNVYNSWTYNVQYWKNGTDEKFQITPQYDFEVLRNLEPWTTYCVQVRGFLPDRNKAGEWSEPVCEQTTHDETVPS

B1: IL-10 Ser51Cys-S48 (ligand, human, UniProt P22301 19-178, looked up)
chain: SPGQGTQSENSCTHFPGNLPNMLRDLRDAFSRVKTFFQMKDQLDNLLLKECLLEDFKGYLGCQALSEMIQFYLEEVMPQAENQDPDIKAHVNSLGENLKTLRLRLRRCHRFLPCENKSKAVEQVKNAFNKLQEKGIYKAMSEFDIFINYIEAYMTMKIRN
modifications: S48 on Cys 51
notes: mature
B2: IL-10 Phe15Cys-R4-8 (ligand, human, UniProt P22301 19-178, looked up)
chain: SPGQGTQSENSCTHCPGNLPNMLRDLRDAFSRVKTFFQMKDQLDNLLLKESLLEDFKGYLGCQALSEMIQFYLEEVMPQAENQDPDIKAHVNSLGENLKTLRLRLRRCHRFLPCENKSKAVEQVKNAFNKLQEKGIYKAMSEFDIFINYIEAYMTMKIRN
modifications: R4-8 on Cys 15
notes: mature
B3: IL-10 Thr6Cys-S48 (ligand, human, UniProt P22301 19-178, looked up)
chain: SPGQGCQSENSCTHFPGNLPNMLRDLRDAFSRVKTFFQMKDQLDNLLLKESLLEDFKGYLGCQALSEMIQFYLEEVMPQAENQDPDIKAHVNSLGENLKTLRLRLRRCHRFLPCENKSKAVEQVKNAFNKLQEKGIYKAMSEFDIFINYIEAYMTMKIRN
modifications: S48 on Cys 6
notes: mature
B4: IL-10 Ser93Cys-R4-2 (ligand, human, UniProt P22301 19-178, looked up)
chain: SPGQGTQSENSCTHFPGNLPNMLRDLRDAFSRVKTFFQMKDQLDNLLLKESLLEDFKGYLGCQALSEMIQFYLEEVMPQAENQDPDIKAHVNCLGENLKTLRLRLRRCHRFLPCENKSKAVEQVKNAFNKLQEKGIYKAMSEFDIFINYIEAYMTMKIRN
modifications: R4-2 on Cys 93
notes: mature; the row prints S in one column and Asp in the next
B5: IL-10 Ser141Cys-R4-7 (ligand, human, UniProt P22301 19-178, looked up)
chain: SPGQGTQSENSCTHFPGNLPNMLRDLRDAFSRVKTFFQMKDQLDNLLLKESLLEDFKGYLGCQALSEMIQFYLEEVMPQAENQDPDIKAHVNSLGENLKTLRLRLRRCHRFLPCENKSKAVEQVKNAFNKLQEKGIYKAMCEFDIFINYIEAYMTMKIRN
modifications: R4-7 on Cys 141
notes: mature
B6: IL-10 Thr13Cys-R4-6 (ligand, human, UniProt P22301 19-178, looked up)
chain: SPGQGTQSENSCCHFPGNLPNMLRDLRDAFSRVKTFFQMKDQLDNLLLKESLLEDFKGYLGCQALSEMIQFYLEEVMPQAENQDPDIKAHVNSLGENLKTLRLRLRRCHRFLPCENKSKAVEQVKNAFNKLQEKGIYKAMSEFDIFINYIEAYMTMKIRN
modifications: R4-6 on Cys 13
notes: mature
B7: IL-10 Tyr137Cys-R4-4 (ligand, human, UniProt P22301 19-178, looked up)
chain: SPGQGTQSENSCTHFPGNLPNMLRDLRDAFSRVKTFFQMKDQLDNLLLKESLLEDFKGYLGCQALSEMIQFYLEEVMPQAENQDPDIKAHVNSLGENLKTLRLRLRRCHRFLPCENKSKAVEQVKNAFNKLQEKGICKAMSEFDIFINYIEAYMTMKIRN
modifications: R4-4 on Cys 137
notes: mature
B8: IL-10 Tyr137Cys-S48 (ligand, human, UniProt P22301 19-178, looked up)
chain: SPGQGTQSENSCTHFPGNLPNMLRDLRDAFSRVKTFFQMKDQLDNLLLKESLLEDFKGYLGCQALSEMIQFYLEEVMPQAENQDPDIKAHVNSLGENLKTLRLRLRRCHRFLPCENKSKAVEQVKNAFNKLQEKGICKAMSEFDIFINYIEAYMTMKIRN
modifications: S48 on Cys 137
notes: mature
B9: IL-10 Thr35Cys-R4-6 (ligand, human, UniProt P22301 19-178, looked up)
chain: SPGQGTQSENSCTHFPGNLPNMLRDLRDAFSRVKCFFQMKDQLDNLLLKESLLEDFKGYLGCQALSEMIQFYLEEVMPQAENQDPDIKAHVNSLGENLKTLRLRLRRCHRFLPCENKSKAVEQVKNAFNKLQEKGIYKAMSEFDIFINYIEAYMTMKIRN
modifications: R4-6 on Cys 35
notes: mature
B10: IL-10 Tyr149Cys-S48 (ligand, human, UniProt P22301 19-178, looked up)
chain: SPGQGTQSENSCTHFPGNLPNMLRDLRDAFSRVKTFFQMKDQLDNLLLKESLLEDFKGYLGCQALSEMIQFYLEEVMPQAENQDPDIKAHVNSLGENLKTLRLRLRRCHRFLPCENKSKAVEQVKNAFNKLQEKGIYKAMSEFDIFINCIEAYMTMKIRN
modifications: S48 on Cys 149
notes: mature
B11: IL-10 Ser93Cys-S48 (ligand, human, UniProt P22301 19-178, looked up)
chain: SPGQGTQSENSCTHFPGNLPNMLRDLRDAFSRVKTFFQMKDQLDNLLLKESLLEDFKGYLGCQALSEMIQFYLEEVMPQAENQDPDIKAHVNCLGENLKTLRLRLRRCHRFLPCENKSKAVEQVKNAFNKLQEKGIYKAMSEFDIFINYIEAYMTMKIRN
modifications: S48 on Cys 93
notes: as for B4
B12: IL-10 Thr155Cys-R4-7 (ligand, human, UniProt P22301 19-178, looked up)
chain: SPGQGTQSENSCTHFPGNLPNMLRDLRDAFSRVKTFFQMKDQLDNLLLKESLLEDFKGYLGCQALSEMIQFYLEEVMPQAENQDPDIKAHVNSLGENLKTLRLRLRRCHRFLPCENKSKAVEQVKNAFNKLQEKGIYKAMSEFDIFINYIEAYMCMKIRN
modifications: R4-7 on Cys 155
notes: mature
B13: IL-10 Ser118Cys-S48 (ligand, human, UniProt P22301 19-178, looked up)
chain: SPGQGTQSENSCTHFPGNLPNMLRDLRDAFSRVKTFFQMKDQLDNLLLKESLLEDFKGYLGCQALSEMIQFYLEEVMPQAENQDPDIKAHVNSLGENLKTLRLRLRRCHRFLPCENKCKAVEQVKNAFNKLQEKGIYKAMSEFDIFINYIEAYMTMKIRN
modifications: S48 on Cys 118
notes: mature
B14: IL-10 Ala89Cys-R4-1 (ligand, human, UniProt P22301 19-178, looked up)
chain: SPGQGTQSENSCTHFPGNLPNMLRDLRDAFSRVKTFFQMKDQLDNLLLKESLLEDFKGYLGCQALSEMIQFYLEEVMPQAENQDPDIKCHVNSLGENLKTLRLRLRRCHRFLPCENKSKAVEQVKNAFNKLQEKGIYKAMSEFDIFINYIEAYMTMKIRN
modifications: R4-1 on Cys 89
notes: mature
B15: IL-10 Ser118Cys-R4-5 (ligand, human, UniProt P22301 19-178, looked up)
chain: SPGQGTQSENSCTHFPGNLPNMLRDLRDAFSRVKTFFQMKDQLDNLLLKESLLEDFKGYLGCQALSEMIQFYLEEVMPQAENQDPDIKAHVNSLGENLKTLRLRLRRCHRFLPCENKCKAVEQVKNAFNKLQEKGIYKAMSEFDIFINYIEAYMTMKIRN
modifications: R4-5 on Cys 118
notes: mature
B16: IL-10 Tyr72Cys-S48 (ligand, human, UniProt P22301 19-178, looked up)
chain: SPGQGTQSENSCTHFPGNLPNMLRDLRDAFSRVKTFFQMKDQLDNLLLKESLLEDFKGYLGCQALSEMIQFCLEEVMPQAENQDPDIKAHVNSLGENLKTLRLRLRRCHRFLPCENKSKAVEQVKNAFNKLQEKGIYKAMSEFDIFINYIEAYMTMKIRN
modifications: S48 on Cys 72
notes: mature
B17: IL-10 Thr155Cys-S48 (ligand, human, UniProt P22301 19-178, looked up)
chain: SPGQGTQSENSCTHFPGNLPNMLRDLRDAFSRVKTFFQMKDQLDNLLLKESLLEDFKGYLGCQALSEMIQFYLEEVMPQAENQDPDIKAHVNSLGENLKTLRLRLRRCHRFLPCENKSKAVEQVKNAFNKLQEKGIYKAMSEFDIFINYIEAYMCMKIRN
modifications: S48 on Cys 155
notes: mature
B18: IL-10 Tyr149Cys-R4-4 (ligand, human, UniProt P22301 19-178, looked up)
chain: SPGQGTQSENSCTHFPGNLPNMLRDLRDAFSRVKTFFQMKDQLDNLLLKESLLEDFKGYLGCQALSEMIQFYLEEVMPQAENQDPDIKAHVNSLGENLKTLRLRLRRCHRFLPCENKSKAVEQVKNAFNKLQEKGIYKAMSEFDIFINCIEAYMTMKIRN
modifications: R4-4 on Cys 149
notes: mature
B19: IL-10 Ala29Cys-S48 (ligand, human, UniProt P22301 19-178, looked up)
chain: SPGQGTQSENSCTHFPGNLPNMLRDLRDCFSRVKTFFQMKDQLDNLLLKESLLEDFKGYLGCQALSEMIQFYLEEVMPQAENQDPDIKAHVNSLGENLKTLRLRLRRCHRFLPCENKSKAVEQVKNAFNKLQEKGIYKAMSEFDIFINYIEAYMTMKIRN
modifications: S48 on Cys 29
notes: mature
B20: IL-10 Tyr72Cys-R4-4 (ligand, human, UniProt P22301 19-178, looked up)
chain: SPGQGTQSENSCTHFPGNLPNMLRDLRDAFSRVKTFFQMKDQLDNLLLKESLLEDFKGYLGCQALSEMIQFCLEEVMPQAENQDPDIKAHVNSLGENLKTLRLRLRRCHRFLPCENKSKAVEQVKNAFNKLQEKGIYKAMSEFDIFINYIEAYMTMKIRN
modifications: R4-4 on Cys 72
notes: mature
B21: IL-10 Ser141Cys-S48 (ligand, human, UniProt P22301 19-178, looked up)
chain: SPGQGTQSENSCTHFPGNLPNMLRDLRDAFSRVKTFFQMKDQLDNLLLKESLLEDFKGYLGCQALSEMIQFYLEEVMPQAENQDPDIKAHVNSLGENLKTLRLRLRRCHRFLPCENKSKAVEQVKNAFNKLQEKGIYKAMCEFDIFINYIEAYMTMKIRN
modifications: S48 on Cys 141
notes: mature
B22: IL-10 Thr13Cys-S48 (ligand, human, UniProt P22301 19-178, looked up)
chain: SPGQGTQSENSCCHFPGNLPNMLRDLRDAFSRVKTFFQMKDQLDNLLLKESLLEDFKGYLGCQALSEMIQFYLEEVMPQAENQDPDIKAHVNSLGENLKTLRLRLRRCHRFLPCENKSKAVEQVKNAFNKLQEKGIYKAMSEFDIFINYIEAYMTMKIRN
modifications: S48 on Cys 13
notes: mature
B23: IL-10 Ala29Cys-R4-5 (ligand, human, UniProt P22301 19-178, looked up)
chain: SPGQGTQSENSCTHFPGNLPNMLRDLRDCFSRVKTFFQMKDQLDNLLLKESLLEDFKGYLGCQALSEMIQFYLEEVMPQAENQDPDIKAHVNSLGENLKTLRLRLRRCHRFLPCENKSKAVEQVKNAFNKLQEKGIYKAMSEFDIFINYIEAYMTMKIRN
modifications: R4-5 on Cys 29
notes: mature
B24: IL-10 Val91Cys-S48 (ligand, human, UniProt P22301 19-178, looked up)
chain: SPGQGTQSENSCTHFPGNLPNMLRDLRDAFSRVKTFFQMKDQLDNLLLKESLLEDFKGYLGCQALSEMIQFYLEEVMPQAENQDPDIKAHCNSLGENLKTLRLRLRRCHRFLPCENKSKAVEQVKNAFNKLQEKGIYKAMSEFDIFINYIEAYMTMKIRN
modifications: S48 on Cys 91
notes: mature
B25: IL-10 Val91Cys-R4-5 (ligand, human, UniProt P22301 19-178, looked up)
chain: SPGQGTQSENSCTHFPGNLPNMLRDLRDAFSRVKTFFQMKDQLDNLLLKESLLEDFKGYLGCQALSEMIQFYLEEVMPQAENQDPDIKAHCNSLGENLKTLRLRLRRCHRFLPCENKSKAVEQVKNAFNKLQEKGIYKAMSEFDIFINYIEAYMTMKIRN
modifications: R4-5 on Cys 91
notes: mature

Tests used:
IL-10R1-Fc = target: T1, IL-10R1-Fc; assay: ELISA, IL-10R1-Fc coated
IL-10R2-Fc/His = target: T2, IL-10R2-Fc/His; assay: ELISA, IL-10R2-Fc/His coated

Binder | Decreased fold of binding to ligand after Conjugating with S48 (IL-10R1-Fc) [fold] | Binding recovery (>60%) (IL-10R1-Fc) [%] | further results
B1 | 3 | – | –
B2 | – | – | Binding recovery (>60%) (IL-10R2-Fc/His): 90%
B3 | 3 | – | –
B4 | – | 100 | –
B5 | – | 112 | –
B6 | – | 99.1 | –
B7 | – | 99.1 | –
B8 | 5 | – | –
B9 | – | 90.1 | –
B10 | 5 | – | –
B11 | 3 | – | –
B12 | – | 98.1 | –
B13 | 3 | – | –
B14 | – | – | Binding recovery (>60%) (IL-10R2-Fc/His): 78.7%
B15 | – | 100 | –
B16 | 3 | – | –
B17 | 3 | – | –
B18 | – | 115 | –
B19 | – | – | Decreased fold of binding to ligand after Conjugating with S48 (IL-10R2-Fc/His): 3 fold
B20 | – | 109 | –
B21 | 19 | – | –
B22 | 7 | – | –
B23 | – | – | Binding recovery (>60%) (IL-10R2-Fc/His): 78%
B24 | 3 | – | –
B25 | – | 97.2 | –
